In patent US10005846B2, “Anti-transglutaminase 2 antibodies” (MEDICAL RESEARCH COUNCIL TECHNOLOGY, priority 2012, dated 2018):
Numbering of substitutions follows the chain as printed.

T1: extracellular TG2 in human HK-2 cells (Homo sapiens, UniProt P21980)
T1 construct: endogenous in cells; host or cells: HK-2 (kidney proximal tubular epithelium)
T1 sequence (P21980 1-687): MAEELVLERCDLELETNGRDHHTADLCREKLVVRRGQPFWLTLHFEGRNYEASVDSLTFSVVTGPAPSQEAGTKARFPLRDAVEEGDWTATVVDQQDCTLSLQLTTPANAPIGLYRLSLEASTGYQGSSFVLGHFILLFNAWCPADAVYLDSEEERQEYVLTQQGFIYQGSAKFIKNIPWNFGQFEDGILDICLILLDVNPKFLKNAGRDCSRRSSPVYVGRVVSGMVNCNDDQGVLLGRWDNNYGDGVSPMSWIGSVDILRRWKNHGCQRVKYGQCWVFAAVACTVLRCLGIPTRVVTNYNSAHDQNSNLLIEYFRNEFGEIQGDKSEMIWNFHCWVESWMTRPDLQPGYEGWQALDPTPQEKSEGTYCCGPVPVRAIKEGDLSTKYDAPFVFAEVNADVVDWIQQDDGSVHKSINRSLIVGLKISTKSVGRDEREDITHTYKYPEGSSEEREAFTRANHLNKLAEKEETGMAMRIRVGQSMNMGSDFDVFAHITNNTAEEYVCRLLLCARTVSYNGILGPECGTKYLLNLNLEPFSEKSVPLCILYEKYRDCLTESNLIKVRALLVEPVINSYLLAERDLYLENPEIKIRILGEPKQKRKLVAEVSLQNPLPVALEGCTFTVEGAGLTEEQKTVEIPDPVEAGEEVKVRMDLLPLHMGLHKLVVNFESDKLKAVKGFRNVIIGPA

T2: TG2 activity in HepG2 cell homogenate (Homo sapiens, UniProt P21980)
T2 construct: endogenous in cells; host or cells: HepG2
T2 sequence (P21980 1-687): T1 sequence (P21980 1-687)

T3: human TG2 (Homo sapiens, UniProt P21980)
T3 sequence (P21980 1-687): T1 sequence (P21980 1-687)

B1: DC1: murine monoclonal anti-TG2 IgG, Group 1; VL SEQ ID NO: 70, VH SEQ ID NO: 71 (antibody, V domains shown)
VH: EVQLVESGGGLVKPGGSLKLSCAASGFTLSTHAMSWVRQTPEKRLEWVATISSGGRSTYYPDSVKGRFTISRDNVKNTLYLQLSSLRSEDTAVYFCARLISTYWGQGTTLTVSS
VL: DITMTQSPSSIYASLGERVTITCKASQDINSYLTWFQQKPGKSPKILIYLVNRLVDGVPSRFSGSGSGQDYALTISSLEYEDMGIYYCLQYDDFPYTFGGGTKLEIK
modifications: DC-1 heavy chain variable region; DC-1 light chain variable region
B2: EH6: murine monoclonal anti-TG2 IgG, Group 1; VH and VK in FIG. 22 (antibody, V domains shown)
VH: EVQLQQSGPELVKPGASVKMSCKASGYTFTSYVMHWVKQKPGQGLEWIGFINPYNDGTKYNEKFKGKATLTSDKASTTAYMELSSLTSEDSAVYYCARFSSGYWGQGTTLTVSS
VL: DVLMTQTPLSLPVSLGDQASISCRSSQSIVHSNGNTYLEWYLQKPGQSPKLLIYKVSNRFSGVPDRFSGSGSGTDFTLKISRVGAEDLGVYYCLQVSHVPFTFGSGTKLEIK
B3: AG9: murine TG2 inhibitory monoclonal antibody; VH and VK in FIG. 23 (antibody, V domains shown)
VH: B2 VH with K23R, S31T, M34I, F50Y, T58A, K59R, A75S, F99L, G102D
VL: B2 VL with T7N, Q27R, V30E, L51F, K79R, R82S, G84E, L94F, V96G, S105G
B4: JE12: murine monoclonal anti-TG2 IgG, Group 1; VH and VK in FIG. 21 (antibody, V domains shown)
VH: B2 VH with T28R, P41S, F50Y, T58A, A75S, T77S, F99L, G102D
VL: B2 VL with T7N, V30E, S32I, L51F, K79R, G84E, V90I, L94F, V96G, S105G
B5: AH3: murine TG2 inhibitory monoclonal antibody; VH and VK in FIG. 24 (antibody, V domains shown)
VH: B2 VH with K23R, S31T, M34I, F50Y, T58A, K59R, A75S, F99L, G102D
VL: B2 VL with T7N, Q27R, V30E, L51F, K79R, R82S, G84E, L94F, V96G, S105G
B6: BB7: murine monoclonal anti-TG2 IgG, Group 1; VL SEQ ID NO: 60, VH SEQ ID NO: 61 (antibody, V domains shown)
VH: AVQLVESGGGLVKPGGSLKLSCAASGIIFSSSAMSWVRQTPEKRLEWVATISSGGRSTYYPDSVKGRFTVSRDSAKNTLYLQMDSLRSEDTAIYYCAKLISPYWGQGTTLTVSS
VL: AIKMTQSPSSMYASLGERVIITCKASQDINSYLTWFQQKPGKSPKTLIYLTNRLMDGVPSRFSGSGSGQEFLLTISGLEHEDMGIYYCLQYVDFPYTFGGGTKLEIK
modifications: BB-7 heavy chain variable region; BB-7 light chain variable region

Assays:
[1] = target: T1, extracellular TG2 in human HK-2 cells; assay: Extracellular TG activity in HK-2 cells, biotin cadaverine incorporation into fibronectin (Example 1); assay type: cell-based
Protocol: HK2 cells were plated onto fibronectin and incubated for 2 hours in the presence of 0.1M biotin cadaverine with either 4 ng/μl of human anti-TG2 antibody (AB1) (part A), 4 ng/μl of human anti-TG2 antibody (DC1) (part B) or 400 μM of the site-specific pan TG inhibitor 1,3-Dimethyl-2-[(2-oxo-propyl)thio]imidazolium chloride. […] Changes in optical density were measured at 450 nm in a 96 well plate reader. Data represents mean OD at 450 nm corrected to 1 mg of cell protein. n=6 wells per experimental group.
Extracellular TG activity was measured by modified cell ELISA. HK-2 epithelial cells were harvested using 0.1M EDTA or 0.25% trypsin/EDTA and plated at a density of 8×10^4 cells/well in serum free medium onto a 96 well plate that had been coated overnight with 100 μl/well of fibronectin (5 μg/ml in 50 mM Tris-HCl pH 7.4) (Sigma, Poole UK). Cells were allowed to attach for 2.5 h at 37° C. in the presence of the 0.1 mM biotin cadaverine [N-(5 amino pentyl biotinamide) trifluoroacetic acid] (Molecular Probes, Eugene Oreg., USA). Plates were washed twice with 3 mM EDTA/PBS and cells removed with 0.1% (w/v) deoxycholate in 5 mM EDTA/PBS. The supernatant was collected and used for protein determination. […] The reaction was stopped with 50 μl 2.5 M H2SO4 and the absorbance read at 450 nm.

[2] = target: T2, TG2 activity in HepG2 cell homogenate; assay: 3H putrescine incorporation TG activity assay in HepG2 cell homogenate; assay type: biochemical
Protocol: A: Hep2G cells were lysed and 45 ug of protein mixed with 750 ng of IgG from AB1, DH2, DD9, BB7, DC1 and EH6 for 20 minutes. This was subsequently assayed using the ^3H Putrescine incorporation TG activity assay with sampling over 1 hour. The rate of reaction was calculated and expressed as a percentage of the same lysate incubated with a random antibody (MAB002). Data represents the mean percentage inhibition ±SEM from 2 separate experiments done in duplicate. *p<0.05
HepG2 cells were kindly supplied by Richard Ross (University of Sheffield). Cells were routinely grown at 37° C. in a 95% humidified atmosphere of 5% CO2 in DMEM/4.5 g per liter glucose supplemented with 10% foetal calf serum (FCS), 100 IU penicillin and 100 μg/ml streptomycin, 2 mM I-glutamine (all GIBCO). Two million cells were seeded on a 10 cm dishes and grown for 48 hours. Cells were lysed in 250 μl of STE buffer (0.32M sucrose, 5 mM Tris, 1 mM EDTA containing protease inhibitors Phenylmethylsulphonyl fluoride (1 mM), benzamidine (5 mM), and leupeptin (10 μg/ml) and sonicated on ice to produce a cell lysate usable in TG2 activity assay.
The same protocol was used to assess TG inhibition in cell lysates by replacing the 25 μl of recombinant protein with 25 μl of cell lysate.

human TG2 = target: T3, human TG2; assay: 3H-putrescine incorporation TG activity assay with recombinant human TG2; assay type: biochemical; conditions: for hybridoma supernatant ability to inhibit TG2 activity: initial screen of conditioned medium, 100 ng of TG2
Protocol: To determine an IC50 value for each antibody against human, rat and mouse the ^3H Putrescine assay was used. 100 ng of human TG2 or 25 ng of mouse and rat TG2 was used to generate a reaction where approximately 3000 cpm of Putrescine were incorporated per hour in 10 ul of the reaction mixture. Serial dilutions of each antibody were then applied starting from adding 500 ng (5 ug/ml final concentration) to the reaction mixture and incubated with the TG2 for 20 minutes prior to activating the reaction. IC50 values were calculated by determining the concentration at which the enzymatic rate of reaction was reduced by 50% using an appropriate curve fit in graphpad prism. Values are expressed as the amount of IgG in […] in the reaction that would inhibit 1 ng of TG2.
TG activity is measured by the Ca^2+ dependent incorporation of ^3H-putrescine into N′,N′-dimethylcasein. Recombinant human TG2 (100 ng) was pre-incubated for twenty minutes at room temperature with the test sample (conditioned medium or purified IgG) before starting the reaction. Twenty-five μl of reaction mix (5 μl of 25 mM CaCl2, 5 μl of 40 mM dithiothreitol, 5 μl ^3H-putrescine mix, and 10 μl 25 mg/ml of N,N′ dimethylcasein (replace 25 mM CaCl2 with 100 mM EDTA for a non-enzymatic control) was added to start the reaction and the samples incubated at 37° C. for up to 1 hour. Aliquots of 10 μl were spotted onto a strip of 3 MM Whatman filter paper and plunged immediately into ice-cold 10% trichloroacetic acid (TCA) in order to precipitate the cross-linked proteins typically at time 0, 10, 30 and 60 minutes into the reaction. After three extensive washes in ice-cold 5% TCA followed by 3 rinses with ice-cold 95% ethanol, the air dried filter was counted in 2 ml of scintillation fluid (Ultima Gold Packard, Perkin Elmer). The rate of reaction was calculated. 1 TG unit is equivalent to the incorporation of 1 nmol of putrescine per hour at 37° C.

| Molecule | hybridoma supernatant ability to inhibit TG2 activity (human TG2) | other results |
| --- | --- | --- |
| B1 | able to inhibit TG2 activity | inhibition of extracellular TG activity ([1]; 4 ng/ul in the culture media): 55%; inhibition of extracellular TG2 in human HK-2 cells (in words) ([1]; applied to the culture media): able to inhibit TG2 successfully; inhibition of TG2 in human Hep2G cells (in words) [2]: able to inhibit TG2 successfully; IC50 against human TG2 (human TG2; amount of IgG in the reaction that would inhibit 1 ng of TG2, 100 ng human TG2): 0.011 µg/mL |
| B2 | able to inhibit TG2 activity |  |
| B3 | able to inhibit TG2 activity |  |
| B4 | able to inhibit TG2 activity |  |
| B5 | able to inhibit TG2 activity |  |
| B6 | able to inhibit TG2 activity | inhibition of TG2 activity in HepG2 homogenate ([2]; 0.5 μg of antibody, 45 ug lysate protein): 90% |
